Assay results: patent publication US8669347B2, “Truncated variant of the mammalian target for rapamycin (MTOR) protein” (UCL Business PLC, priority 2007, dated 2014)

Legend:
Hek293 cells [1] = experiment: BrdU pulse-chase cell cycle analysis by FACS; assay type: cell-based, human; details: overexpressing cells vs mTORα or control (EGFP) cells; BrdU 30 minutes, chased 24 hours
Method: HEK293 cells stably overexpressing mTORβ, mTORα or EGFP were pulse labeled with BrdU for 30 minutes and chased every 2 hours for 24 hours. The incorporation of BrdU was measured by FACS analysis. Duration of G1, S and G2 phases of cell cycle observed for each cell line is presented on graph. SD, p=0.05.
To further investigate the role of mTORβ in the cell cycle, Hek293 cells overexpressing mTORβ, mTORα or EGFP were pulse labeled with BrdU for 30 minutes and chased every 2 hours for 24 hours. Incorporation of BrdU into the cells was measured by FACS analysis. The duration of the G1, S and G2 phases of cell cycle observed for each cell line was determined (see FIG. 12). The duration of S and G2 phases were similar in all three cell groups. However, the duration of the G1 phase was shorter in the mTORβ overexpressing cells than in the mTORα or control cells.

S6K1 = experiment: mTOR in vitro kinase assay, His-S6K1C substrate; assay type: biochemical; details: FLAG immunoprecipitate from Hek293 cells, compared with mTORα
Method: (§1) HEK293 cells were transfected with pcDNA3.1 or pcDNA 3.1 mTORβ. One day later, cells were starved for 24 hours and than stimulated with 10% fetal bovine serum for 1 hour. Rapamycin (10 nM) was added 30 minutes before stimulation. Cells were lysed, resolved by SDS-PAGE and immunobloted with the C-terminal anti-mTOR and pS2448 mTOR antibodies. […] Two days later, cells were lysed and immunoprecipitated with anti-FLAG antibody. The immune complexes were used in mTOR in vitro kinase assay with His-4E-BP1 and His-S6K1C as substrates. Kinase reactions were resolved by SDS-PAGE and immunoblotted with phosphospecific antibodies to 4E-BP1 p65 and S6K1 p389. The level of immunoprecipitated FLAG-mTORα and FLAG-mTORβ was measured by Western blotting with anti-FLAG.
(§2) Is mTORβ able to phosphorylate S6K and 4E-BP1, which are the main physiological substrates for mTORα? […] The immune complexes were then used in mTOR kinase reactions, containing cold ATP and recombinant 4E-BP1 or His-S6K1C. The kinase reactions were resolved by SDS-PAGE and immunoblotted with phosphospecific antibodies pT389-S6K1 and pS65-4E-BP1.
(§3) mTOR in vitro kinase assay was performed as published previously (Kim et al. 2002). […] The reactions were stopped by adding 5× sample buffer and resolved by SDS-PAGE and analyzed by immunoblotting.

Hek293 stable cell lines [2] = experiment: Serum starvation cell survival, Trypan Blue dye exclusion assay; assay type: cell-based, human; details: stable overexpressing lines serum starved for 60 hours
Method: Hek293 stable cell lines, overexpressing mTORβ wt, mTORα wt, mTORβ kinase dead or EGFP were serum starved for 60 hours. Cell survival was assessed by the Trypan Blue dye exclusion assay. Data are means±SE of 5 experiments. * P value≦0.01.
The effects of mTORβ in serum starved cells were also assessed. Hek293 stable cell lines, overexpressing mTORβ wt, mTORα wt, mTORβ kinase dead or EGFP were serum starved for 60 hours. Cell survival was assessed by the Trypan Blue dye exclusion assay.

4E-BP1 = experiment: mTOR in vitro kinase assay, 4E-BP1 substrate; assay type: biochemical; details: FLAG immunoprecipitate from Hek293 cells, recombinant 4E-BP1 substrate, compared with mTORα
Method: as §1, §2, §3

c-Myc = experiment: Western blot of c-Myc protein level in transfected HEK293 cells; assay type: cell-based, human; details: HEK293 transiently transfected, lysed two days after transfection
Method: (§4) Hek293 stable cell lines, over-expressing mTORβ wt, mTORα wt or EGFP were seeded into a 96 well plate at various densities (250, 500, 1000 and 2000 cells per well) and grown under standard conditions for 7 days. Cell numbers were than measured in each well by a Resosurin based assay. Normalized growth curves for each cell line were calculated using data from six independent experiments (A). Western blot analysis of total cell lysates of stable cell lines with antibodies to c-myc and its transcription targets (B). The level of proteins was densitometrically measured, actin normalized and folds were calculated against EGFP expressing stable cell line (C).
(§5) HEK293 stable cell lines, overexpressing mTORβ wt, mTORβ kinase-dead or EGFP were seeded into 96 well plate at various densities (1000, 2000, 4000 and 8000 cells per well) and grown under standard conditions for 5 days. Cell numbers were then measured in each well by Resazurin based assay. Normalized growth curves for each cell line were calculated using data from six independent experiments (A). Western blot analysis of total cell lysates of stable cell lines with antibodies to c-myc and its transcription targets. The level of proteins was densitometrically measured, actin normalized and folds were calculated against EGFP expressing stable cell line (B). […]

Hek293 cells [3] = experiment: Recovery from Sorbitol-induced stress; assay type: cell-based, human; details: overexpressing cells, compared with mTORα overexpressing cells
Raptor, Rictor, and GβL = experiment: Co-immunoprecipitation with mTOR binding partners in HEK293 cells; details: anti-FLAG immunoprecipitation from transfected HEK293 cells
Method: HEK293 cells were transfected with pcDNA3.1-mTORβ-FLAG and pRK-Raptor-HA or pcDNA3.1-mTORβ-FLAG and pRK-Rictor-Myc or pcDNA3.1-mTORβ-FLAG and pcRK-GβL. The supernatants of lysed cells were immunoprecipitated with anti-FLAG antibody or control nonspecific antibody. The immune complexes or total cell lysates from transfected cells (15 μg) were resolved by SDS-PAGE and probed in Western blotting with anti-HA, anti-Rictor, or anti-GβL antibodies.
HEK293 cells were washed with ice-cold phosphate-buffered saline (PBS) and extracted with the lysis buffer containing 50 mM HEPES (pH 7.5), 150 mM NaCl, 1% (v/v) Triton X100, 2 mM EDTA, 50 mM sodium fluoride, 10 mM sodium pyrophosphate, 1 mM sodium orthovanadate, and a mixture of protease inhibitors (Roche Applied Science). Whole-cell extracts were centrifuged at 10,000×g for 30 minutes at 4° C. Endogenous or transiently expressed proteins were immunoprecipitated with corresponding antibodies immobilized on protein A-Sepharose beads (Amersham Biosciences) for 3 hours at 4° C. The immune complexes were then washed once with Tris-buffered saline containing 0.05% Tween 20 and the Wash Buffer 1 (50 mM HEPES [pH 7.5], 40 mM NaCl, and 2 mM EDTA) with 1% Triton X-100, Wash Buffer 1 with 500 mM LiCl and 0.5% Triton X-100, Wash Buffer 1 with 500 mM LiCl, and Wash Buffer 2 (50 mM HEPES [pH 7.5] and 150 mM NaCl). […]

Hek293 cells [4] = experiment: Colony formation in agarose (oncogenic potential); assay type: cell-based, human; details: stably overexpressing cells, 14 days, MTT stain, compared with mTORα and control cells
Method: HEK293 cells stably overexpressing mTORβ, mTORα or EGFP were plated in a thin layer of agarose in culture medium. After 14 days, colonies were stained using MTT (A). Colonies were counted using Quantity One Software (Bio-Rad) and folds were plotted (B). Data are means±SE of 4 experiments. * P value≦0.01.
To further investigate the effect of mTORβ expression on cell oncogenic potential, Hek293 cells stably overexpressing mTORβ, mTORα or EGFP were plated in a thin layer of agarose in culture medium. After 14 days, colonies were stained using MTT (see FIG. 14A). Colonies were counted using quantity 1 software (Bio-Rad) and folds were plotted (see FIG. 14B).

Hek293 stable cell lines [5] = experiment: Cell proliferation assay (Resazurin based) of Hek293 stable cell lines; parameters: species or system human; details: six independent studies
Method: as §4, §5

B1: mTORβ: splice form of mTOR: fusion of amino acids 1 to 23 and 1867 to 2549 of mTORα, 706 amino acids (SEQ ID NO: 2) (protein, listed as Homo sapiens)
chain: MLGTGPAAATTAATTSSNVSVLQKKVTEDLSKTLLMYTVPAVQGFFRSISLSRGNNLQDTLRVLTLWFDYGHWPDVNEALVEGVKAIQIDTWLQVIPQLIARIDTPRPLVGRLIHQLLTDIGRYHPQALIYPLTVASKSTTTARHNAANKILKNMCEHSNTLVQQAMMVSEELIRVAILWHEMWHEGLEEASRLYFGERNVKGMFEVLEPLHAMMERGPQTLKETSFNQAYGRDLMEAQEWCRKYMKSGNVKDLTQAWDLYYHVFRRISKQLPQLTSLELQYVSPKLLMCRDLELAVPGTYDPNQPIIRIQSIAPSLQVITSKQRPRKLTLMGSNGHEFVFLLKGHEDLRQDERVMQLFGLVNTLLANDPTSLRKNLSIQRYAVIPLSTNSGLIGWVPHCDTLHALIRDYREKKKILLNIEHRIMLRMAPDYDHLTLMQKVEVFEHAVNNTAGDDLAKLLWLKSPSSEVWFDRRTNYTRSLAVMSMVGYILGLGDRHPSNLMLDRLSGKILHIDFGDCFEVAMTREKFPEKIPFRLTRMLTNAMEVTGLDGNYRITCHTVMEVLREHKDSVMAVLEAFVYDPLLNWRLMDTNTKGNKRSRTRTDSYSAGQSVEILDGVELGEPAHKKTGTTVPESIHSFIGDGLVKPEALNKKAIQIINRVRDKLTGRDFSHDDTLDVPTQVELLIKQATSHENLCQCYIGWCPFW
duration of the G1 phase (Hek293 cells [1]): shorter
phosphorylation of S6K1 (pT389) in vitro (S6K1): to a lesser extent than mTORα
cell survival after serum starvation (Hek293 stable cell lines [2]): protected cells from starvation induced cell death
phosphorylation of 4E-BP1 (pS65) in vitro (4E-BP1): to a lesser extent than mTORα
c-Myc protein level (c-Myc): significant increase
recovery from Sorbitol-induced stress (Hek293 cells [3]): much faster
complex formation with exogenously expressed Raptor, Rictor, and GβL (Raptor, Rictor, and GβL): form specific complexes
cell oncogenic potential (colonies in agarose) (Hek293 cells [4]): increase in cell oncogenic potential
proliferation rate in comparison to control (EGFP) cells (Hek293 stable cell lines [5]; overexpressing stable lines grown 5 days): approximately 1.6 times faster
proliferation compared to control (EGFP) cells (Hek293 stable cell lines [5]; overexpressing stable lines grown 7 days): proliferate faster
